According to paper PMC3531475:

Columns and labels:
[1] = target: T1, adiponectin receptor type 2 (AdipoR2) (human (endogenous in SH-SY5Y)) (UniProt Q86V24)
T1 sequence: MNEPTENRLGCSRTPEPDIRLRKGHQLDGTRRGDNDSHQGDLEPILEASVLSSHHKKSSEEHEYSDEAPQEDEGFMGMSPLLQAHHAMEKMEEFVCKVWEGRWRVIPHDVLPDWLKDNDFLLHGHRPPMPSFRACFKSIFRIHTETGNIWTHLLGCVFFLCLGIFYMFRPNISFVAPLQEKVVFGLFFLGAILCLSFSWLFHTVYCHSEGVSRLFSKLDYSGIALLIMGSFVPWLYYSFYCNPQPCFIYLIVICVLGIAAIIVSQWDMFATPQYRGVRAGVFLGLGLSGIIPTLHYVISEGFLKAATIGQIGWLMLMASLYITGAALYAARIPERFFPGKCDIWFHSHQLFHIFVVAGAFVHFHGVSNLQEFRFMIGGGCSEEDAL

[2] = target: T2, adiponectin receptor type 1 (AdipoR1) (human (endogenous in SH-SY5Y)) (UniProt Q96A54)
T2 sequence: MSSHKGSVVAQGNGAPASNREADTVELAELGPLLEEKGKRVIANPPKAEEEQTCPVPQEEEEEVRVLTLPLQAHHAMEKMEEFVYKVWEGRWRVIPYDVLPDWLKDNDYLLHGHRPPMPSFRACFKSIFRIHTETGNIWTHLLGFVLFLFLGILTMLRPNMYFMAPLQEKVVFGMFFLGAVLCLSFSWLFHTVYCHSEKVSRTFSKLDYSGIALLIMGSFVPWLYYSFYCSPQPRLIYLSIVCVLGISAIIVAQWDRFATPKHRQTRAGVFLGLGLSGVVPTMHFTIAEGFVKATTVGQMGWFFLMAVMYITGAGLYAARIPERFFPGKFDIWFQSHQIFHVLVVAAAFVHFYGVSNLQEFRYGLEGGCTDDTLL

In the case of “Mouse recombinant adiponectin (from UniProt Q60994 18-247) (ligand)”, the cytotoxicity (LDH release, fold of untreated) of Sw-APP transfected SH-SY5Y cells under H2O2 (200-800 µM), with adiponectin 10 µg/ml for 2 hours beforehand; most marked at 400 µM H2O2 (fold cytotoxicity) [1] is reported as 2.7 and the cytotoxicity (LDH release, fold of untreated) of Sw-APP transfected SH-SY5Y cells under H2O2 (200-800 µM), with adiponectin 10 µg/ml for 2 hours beforehand; most marked at 400 µM H2O2 (fold cytotoxicity) [2] is reported as 2.7.
